From patent publication US20220073649A1 (MERUS N V, published 2022)

What was measured:
[1] = molecular target: T1, mouse CXCR4 (wildtype full length) (mouse, UniProt P70658 1-359); assay: flow cytometry, Fab on HEK293 cells expressing natively folded mouse CXCR4
T1 construct: Natively folded mouse CXCR4 expressed on HEK293 cells for flow cytometry
Text: (§1) Fab phage libraries were panned on mouse CXCR4 lipoparticles. Clones were screened by lipoparticle ELISA. Binders were sequenced and grouped into families based on CDR3 homology. Fab from three VHCDR3 families were validated by flow cytometry using HEK293 cells expressing natively folded mouse CXCR4. These families were subsequently tested for binding to human CXCR4 by flow cytometry. The positive clones were recloned into IgG format according to standard methods. Three VHCDR3 families were identified that are crossreactive with human and mouse CXCR4. The amino acid sequences of the heavy chain variable region of the mouse and human CXCR4 binding antibodies are set forth in SEQ Nos: 31, 32 and 33.

human CXCR4 [2] = molecular target: T2, human CXCR4 (human, UniProt P61073 1-352); assay: figure legend (flow cytometry of Example 10)
T2 construct: whole, on cells; Tested by flow cytometry; also called human C-X-C Motif Chemokine Receptor 4
T2 sequence (P61073 whole entry): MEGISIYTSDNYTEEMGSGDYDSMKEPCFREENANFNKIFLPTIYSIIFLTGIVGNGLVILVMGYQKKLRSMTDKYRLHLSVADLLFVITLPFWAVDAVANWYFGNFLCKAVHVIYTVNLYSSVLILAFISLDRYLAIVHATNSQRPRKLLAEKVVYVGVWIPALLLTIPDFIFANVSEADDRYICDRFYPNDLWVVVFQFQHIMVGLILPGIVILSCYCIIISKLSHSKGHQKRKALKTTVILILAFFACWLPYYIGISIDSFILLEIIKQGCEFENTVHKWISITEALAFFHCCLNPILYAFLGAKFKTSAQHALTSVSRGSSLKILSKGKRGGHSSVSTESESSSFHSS
Text: as §1

human CXCR4 [3] = molecular target: T2, human CXCR4; assay: flow cytometry on human CXCR4
Text: as §1

[4] = molecular target: T1, mouse CXCR4 (wildtype full length); assay: figure legend (flow cytometry of Example 10)
Text: as §1

T1 sequence (P70658 whole entry): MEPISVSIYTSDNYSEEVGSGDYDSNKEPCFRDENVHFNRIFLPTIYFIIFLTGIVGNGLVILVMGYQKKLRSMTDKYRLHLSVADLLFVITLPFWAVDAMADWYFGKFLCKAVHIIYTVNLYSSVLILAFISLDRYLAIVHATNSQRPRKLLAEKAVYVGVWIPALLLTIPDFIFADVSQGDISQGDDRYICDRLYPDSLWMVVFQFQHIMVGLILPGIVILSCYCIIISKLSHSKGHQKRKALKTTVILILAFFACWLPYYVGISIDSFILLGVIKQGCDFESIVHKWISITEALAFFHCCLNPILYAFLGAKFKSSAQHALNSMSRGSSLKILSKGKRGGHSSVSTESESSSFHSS

| Binder | binding result [1] | binding result (human CXCR4 [2]) | binding result (human CXCR4 [3]) | binding result [4] |
| --- | --- | --- | --- | --- |
| CXCR4-2 (second chimeric Fab comprising a chicken VH paired with a human VL that binds to mouse and human CXCR4) (Fab, V domains shown, Positive clones were later recloned into IgG format; also called chicken VH-human VL Fab) VH: AVTLDESGGGLQTPGGALSLVCKASGFSFSSYDMSWVRQAPGKGLEWVAGIYSIGRDAGYGAAVKGRATISRDNGQSTVRLQLNNLRAEDTGTYYCAKESGSACRYAARHGYICAGYLGSIDAWGHGTEVIVSS VL: not shown | binds | binds |  |  |
| CXCR4-1 (first chimeric Fab comprising a chicken VH paired with a human VL that binds to mouse and human CXCR4) (Fab, V domains shown, Positive clones were later recloned into IgG format; also called chicken VH-human VL Fab) VH: AVTLDESGGGLQTPGGALSLVCKASGFTFSSYRGMHWVRQAPGKGLEWVAGIYSSGSSTAYGAAVKGRATISRDDGQSTVRLQLNNLRAEDTGTYYCAKDAGSCWYGRRSGFNCDPYGGNIDAWGHGTEVIVSS VL: not shown | binds |  | binds |  |
| CXCR4-3 (third chimeric Fab comprising a chicken VH paired with a human VL that binds to mouse and human CXCR4) (Fab, V domains shown, Positive clones were later recloned into IgG format; also called chicken VH-human VL Fab) VH: AVTLDESGGGLQTPGGALSLVCKASGFSIGSYGMGWVRQAPGKGLEFVAGISTIGGVTWYGAAVKGRAIISRDNGQSTVRLQLNNLRAEDTGTYFCAKASDSPSCRYGSRSGWSCPGWNYGGRIDAWGHGTEVIVSS VL: not shown |  | binds |  | binds |
